Experimental data reported in PMC3756911 (Nature, 2013).

B3: hnRNPA1-D262N (full-length) (natural protein)
chain: MSKSESPKEPEQLRKLFIGGLSFETTDESLRSHFEQWGTLTDCVVMRDPNTKRSRGFGFVTYATVEEVDAAMNARPHKVDGRVVEPKRAVSREDSQRPGAHLTVKKIFVGGIKEDTEEHHLRDYFEQYGKIEVIEIMTDRGSGKKRGFAFVTFDDHDSVDKIVIQKYHTVNGHNCEVRKALSKQEMASASSSQRGRSGSGNFGGGRGGGFGGNDNFGRGGNFSGRGGFGGSRGGGGYGGSGDGYNGFGNDGSNFGGGGSYNNFGNYNNQSSNFGPMKGGNFGGRSSGPYGGGGQYFAKPRNQGGYGGSSSSSSYGSGRRF

Experiments:
[1] = molecular target: hnRNPA2 D290V (full-length) (human, UniProt P22626-2 1-341, D290V); experiment: cross-seeded fibrillization, sedimentation analysis
[2] = molecular target: the molecule itself; experiment: thioflavin-T fluorescence + electron microscopy
[3] = molecular target: hnRNPA1-D262V (full-length) (human, UniProt P09651-2 1-320, D262V); experiment: cross-seeded fibrillization, sedimentation analysis
[4] = molecular target: B3; experiment: as above
[5] = molecular target: the molecule itself; experiment: seeded fibrillization, sedimentation analysis

B1: hnRNPA2 wild-type (full-length) (natural protein)
chain: MEREKEQFRKLFIGGLSFETTEESLRNYYEQWGKLTDCVVMRDPASKRSRGFGFVTFSSMAEVDAAMAARPHSIDGRVVEPKRAVAREESGKPGAHVTVKKLFVGGIKEDTEEHHLRDYFEEYGKIDTIEIITDRQSGKKRGFGFVTFDDHDPVDKIVLQKYHTINGHNAEVRKALSRQEMQEVQSSRSGRGGNFGFGDSRGGGGNFGPGPGSNFRGGSDGYGSGRGFGDGYNGYGGGPGGGNFGGSPGYGGGRGGYGGGGPGYGNQGGGYGGGYDNYGGGNYGSGNYNDFGNYNQQPSNYGPMKSGNFGGSRNMGGPYGGGNYGPGGSGGSGGYGGRSRY
B1: binds [1].

NYNVFG [A2 D290V hexapeptide (NYNVFG)]: binds [2].

B2: hnRNPA1 wild-type (full-length) (natural protein)
chain: MSKSESPKEPEQLRKLFIGGLSFETTDESLRSHFEQWGTLTDCVVMRDPNTKRSRGFGFVTYATVEEVDAAMNARPHKVDGRVVEPKRAVSREDSQRPGAHLTVKKIFVGGIKEDTEEHHLRDYFEQYGKIEVIEIMTDRGSGKKRGFAFVTFDDHDSVDKIVIQKYHTVNGHNCEVRKALSKQEMASASSSQRGRSGSGNFGGGRGGGFGGNDNFGRGGNFSGRGGFGGSRGGGGYGGSGDGYNGFGNDGSNFGGGGSYNDFGNYNNQSSNFGPMKGGNFGGRSSGPYGGGGQYFAKPRNQGGYGGSSSSSSYGSGRRF
B2: binds [3]; binds [4].

B3: binds [5].
